Test results: patent US20070065875A1 (INNATE PHARMA S A, published 2007)
Each block holds one binder with its values, some of them ahead of it.

What was measured:
[1] = biological target: T1, NTB-A (NK-T-B-antigen) (human, UniProt Q96DU3 22-332); assay: NTB-A immunoprecipitates from 1% digitonin NK cell lysates probed by western blot
T1 construct: Full-length surface glycoprotein; Native cells may also carry the allelic isoform with an extra Ala at position 266; also called KALI cDNA product; MA127-reactive molecule
T1 sequence: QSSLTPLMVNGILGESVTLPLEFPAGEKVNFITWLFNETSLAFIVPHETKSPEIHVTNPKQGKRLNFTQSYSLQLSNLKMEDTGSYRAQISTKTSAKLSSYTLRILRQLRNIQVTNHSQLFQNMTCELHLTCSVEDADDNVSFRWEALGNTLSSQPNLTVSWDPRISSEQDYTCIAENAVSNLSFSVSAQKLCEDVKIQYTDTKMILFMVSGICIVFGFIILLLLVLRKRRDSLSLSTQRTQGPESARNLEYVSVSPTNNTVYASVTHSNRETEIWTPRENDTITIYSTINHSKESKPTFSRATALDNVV
Method: (§1) NK cells (10⁸) were stimulated or not with 100 M sodium pervanadate (28). 1% NP-40 or 1% digitonin cell lysates were immunoprecipitated with Sepharose-PA (Amersham Pharmacia Biotech)-coupled mAbs. Samples were analyzed in discontinuous SDS-PAGE, transferred to Immobilon P (Millipore), and probed with: (a) anti-phosphotyrosine mAb (PY20-HRPO; Transduction Laboratories); (b) anti-SHP-2 or anti-SHP-1 mAbs (PTP1D and PTP1C, respectively; Transduction Laboratories) followed by rabbit anti-mouse-HRPO (Dako); (c) anti-SH2D1A rabbit anti-serum (produced by Eurogentec S.A; reference 28) followed by donkey anti-rabbit-HRPO (Amersham Pharmacia Biotech). The Renaissance Chemiluminescence Kit (NEN Life Science Products) was used for detection. Putative NTB-A association with known signal transducing molecules was analyzed by probing NTB-A immunoprecipitates, obtained from 1% digitonin cell lysates, with anti-FcRI (provided by E. Vivier, Marseille, France), anti-DAP12 (SI-28; reference 10), and anti-LAT (UBI; Upstate Biotechnology) antisera or with anti-CD3mAb (TIA/2; Immunotech).

[2] = biological target: T1, NTB-A (NK-T-B-antigen); assay: NTB-A immunoprecipitates from 1% digitonin NK cell lysates probed with anti-LAT antiserum
Method: as §1

- binding result [1]: no binding
B1: FcεRIγ (other, human, UniProt P30273 19-86, looked up)
chain: LGEPQLCYILDAILFLYGIVLTLLYCRLKIQVRKAAITSYEKSDGVYTGLSTRNQETYETLKHEKPPQ

- binding result [2]: no binding
B2: linker for activation of T cells (LAT) (other, human, UniProt O43561 1-262, looked up)
chain: MEEAILVPCVLGLLLLPILAMLMALCVHCHRLPGSYDSTSSDSLYPRGIQFKRPHTVAPWPPAYPPVTSYPPLSQPDLLPIPRSPQPLGGSHRTPSSRRDSDGANSVASYENEGASGIRGAQAGWGVWGPSWTRLTPVSLPPEPACEDADEDEDDYHNPGYLVVLPDSTPATSTAAPSAPALSTPGIRDSAFSMESIDDYVNVPESGESAEASLDGSREYVNVSQELHPGAAKTEPAALSSQEAEEVEEEGAPDYENLQELN

- binding result [1]: no binding
B3: KARAP/DAP12 (other, human, UniProt O43914 22-113, looked up)
chain: LRPVQAQAQSDCSCSTVSPGVLAGIVMGDLVLTVLIALAVYFLGRLVPRGRGAAEAATRKQRITETESPYQELQGQRSDVYSDLNTQRPYYK
